The values that follow come from PMC5711802, “Conservation of folding and association within a family of spidroin N-terminal domains” (Scientific Reports, 2017).

Substitutions are numbered along the chain they refer to. Names and notes keep the numbering of the source.

The term koff denotes the rate constant with which the complex falls apart. In general, kon refers to the second-order rate constant of association. Lower therefore signals slow association. Usually stoichiometry N stands for a count of units in the complex or per binding partner. By Kd is commonly meant the constant that tells how readily two partners part at equilibrium.

The target in series [1] is AttoOxa11-modified Q50C mutant of the MaSp1 NTD from Euprosthenops australis (Euprosthenops australis). The experiment in a line: stopped-flow AttoOxa11 fluorescence chasing experiment (dissociation kinetics); dimer to monomers; 0.1 uM dimeric AttoOxa11-modified NTD in 20 mM MES pH 6.0, I 60 mM (KCl), chased with 9 uM non-modified NTD in the same buffer; 0.3 mg/mL BSA and 0.05% Tween-20; 298 K; mono-exponential fit.

The target in series [2] is MaSp1 N-terminal domain (NTD), E. australis (UniProt Q05H60). As to the kind of experiment: stopped-flow Trp fluorescence, pH jump (association kinetics). Conditions: pH 6.0; 298 K; final value not stated (sample at I 150 mM KCl diluted 1:11 into 20 mM MES pH 6.0); 20 mM MES pH 6.0 after mixing (start: 10 mM MES pH 7.0).
For series [3] the target is unchanged. As to the kind of experiment: Kd calculated by the authors from the stopped-flow rate constants (kdiss from C4 / kass from C3). The note with it: pH 6.0; 298 K; about 60 mM (KCl) for kdiss; not stated exactly for kass; 20 mM MES pH 6.0.
For series [4], the target named is MaSp1 N-terminal domain (NTD), L. geometricus. The experiment in a line: stopped-flow Trp fluorescence, pH jump (association kinetics). The note with it: pH 6.0; 298 K; final value not stated (sample at I 150 mM KCl diluted 1:11 into 20 mM MES pH 6.0); 20 mM MES pH 6.0 after mixing (start: 10 mM MES pH 7.0).
For series [5] the target is unchanged. As to the kind of experiment: Kd calculated by the authors from the stopped-flow rate constants (kdiss from C4 / kass from C3). The note with it: pH 6.0; 298 K; about 60 mM (KCl) for kdiss; not stated exactly for kass; 20 mM MES pH 6.0.
For series [6], the target named is MaSp1 N-terminal domain (NTD), L. hesperus (UniProt A6YIY1). The experiment in a line: stopped-flow Trp fluorescence, pH jump (association kinetics). Conditions: pH 6.0; 298 K; final value not stated (sample at I 150 mM KCl diluted 1:11 into 20 mM MES pH 6.0); 20 mM MES pH 6.0 after mixing (start: 10 mM MES pH 7.0).
For series [7] the target is unchanged. The experiment in a line: Kd calculated by the authors from the stopped-flow rate constants (kdiss from C4 / kass from C3). Conditions: pH 6.0; 298 K; about 60 mM (KCl) for kdiss; not stated exactly for kass; 20 mM MES pH 6.0.
Series [8] has as its target MaSp1 N-terminal domain (NTD), N. clavipes (UniProt B5SYS5). The experiment in a line: stopped-flow Trp fluorescence, pH jump (association kinetics). Conditions: pH 6.0; 298 K; final value not stated (sample at I 150 mM KCl diluted 1:11 into 20 mM MES pH 6.0); 20 mM MES pH 6.0 after mixing (start: 10 mM MES pH 7.0).
Series [9] shares this target. The experiment in a line: Kd calculated by the authors from the stopped-flow rate constants (kdiss from C4 / kass from C3). Conditions: pH 6.0; 298 K; about 60 mM (KCl) for kdiss; not stated exactly for kass; 20 mM MES pH 6.0.
For series [10], the target named is MaSp1 NTD Q50C-AttoOxa11, E. australis Q50C (UniProt Q05H60). As to the kind of experiment: stopped-flow AttoOxa11 fluorescence, chasing experiment (dissociation kinetics). Conditions: pH 6.0; 298 K; I adjusted to 60 mM using potassium chloride; 20 mM MES pH 6.0.
Series [11] has as its target MaSp1 NTD Q50C-AttoOxa11, L. geometricus Q50C. The description is as above. The note with it: pH 6.0; 298 K; I adjusted to 60 mM using potassium chloride; 20 mM MES pH 6.0.
For series [12], the target named is MaSp1 NTD Q50C-AttoOxa11, L. hesperus Q50C (UniProt A6YIY1). Described as above. The note with it: pH 6.0; 298 K; I adjusted to 60 mM using potassium chloride; 20 mM MES pH 6.0.
Series [13] deals with MaSp1 NTD Q50C-AttoOxa11, N. clavipes Q50C (UniProt B5SYS5). The description is as above. Conditions: pH 6.0; 298 K; I adjusted to 60 mM using potassium chloride; 20 mM MES pH 6.0.
For series [14], the target named is N-terminal domain (NTD) of major ampullate spidroin 1 (MaSp1) from Latrodectus hesperus (Latrodectus hesperus). The experiment in a line: stopped-flow tryptophan fluorescence (association kinetics); monomer to dimer; monomeric NTD in 10 mM MES pH 7.0, I 150 mM (KCl), mixed 1:11 into 20 mM MES pH 6.0; three concentrations between 0.1 and 1 uM; 298 K; fit to a kinetic model of dimerization.

For series [15] the target is unchanged. As to the kind of experiment: stopped-flow tryptophan fluorescence + other: stopped-flow AttoOxa11 fluorescence chasing experiment; dimer to monomers; Kd calculated as k diss/k ass from the two kinetic experiments; pH 6.0, 298 K.
Series [16] shares this target. As to the kind of experiment: SEC-MALS; dimer conditions: 20 mM MES pH 6.0, ionic strength 60 mM (KCl); 100 uL at 5 mg/mL on Superdex-75 HR10/300, 0.5 ml/min. (Size exclusion chromatography separates by hydrodynamic size, large species first.)
Series [17] addresses N-terminal domain (NTD) of major ampullate spidroin 1 (MaSp1) from Nephila clavipes (Nephila clavipes). As to the kind of experiment: stopped-flow tryptophan fluorescence (association kinetics); monomer to dimer; monomeric NTD in 10 mM MES pH 7.0, I 150 mM (KCl), mixed 1:11 into 20 mM MES pH 6.0; three concentrations between 0.1 and 1 uM; 298 K; fit to a kinetic model of dimerization.

Series [18] shares this target. As to the kind of experiment: stopped-flow tryptophan fluorescence + other: stopped-flow AttoOxa11 fluorescence chasing experiment; dimer to monomers; Kd calculated as k diss/k ass from the two kinetic experiments; pH 6.0, 298 K.
Series [19] shares this target. The experiment in a line: SEC-MALS; dimer conditions: 20 mM MES pH 6.0, ionic strength 60 mM (KCl); 100 uL at 5 mg/mL on Superdex-75 HR10/300, 0.5 ml/min.
Series [20] concerns the molecule itself. As to the kind of experiment: stopped-flow AttoOxa11 fluorescence chasing experiment (dissociation kinetics); dimer to monomers; 0.1 uM dimeric AttoOxa11-modified NTD in 20 mM MES pH 6.0, I 60 mM (KCl), chased with 9 uM non-modified NTD in the same buffer; 0.3 mg/mL BSA and 0.05% Tween-20; 298 K; mono-exponential fit.
The target in series [21] is T1, N-terminal domain (NTD) of major ampullate spidroin 1 (MaSp1) from Euprosthenops australis (Euprosthenops australis), Q05H60.
T1 chain: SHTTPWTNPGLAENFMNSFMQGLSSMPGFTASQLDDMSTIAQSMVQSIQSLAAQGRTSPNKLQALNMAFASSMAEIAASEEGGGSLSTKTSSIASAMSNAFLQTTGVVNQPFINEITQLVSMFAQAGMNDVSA
The experiment in a line: stopped-flow tryptophan fluorescence + other: stopped-flow AttoOxa11 fluorescence chasing experiment; dimer to monomers; Kd calculated as k diss/k ass from the two kinetic experiments; pH 6.0, 298 K. Conditions: remark: other sources report otherwise.

For series [22], the target named is T1, N-terminal domain (NTD) of major …. The experiment in a line: stopped-flow tryptophan fluorescence (association kinetics); monomer to dimer; monomeric NTD in 10 mM MES pH 7.0, I 150 mM (KCl), mixed 1:11 into 20 mM MES pH 6.0; three concentrations between 0.1 and 1 uM; 298 K; fit to a kinetic model of dimerization. Conditions: remark: other sources report otherwise.

Series [23] has the same target. As to the kind of experiment: SEC-MALS; dimer conditions: 20 mM MES pH 6.0, ionic strength 60 mM (KCl); 100 uL at 5 mg/mL on Superdex-75 HR10/300, 0.5 ml/min. The note with it: remark: other sources report otherwise.
Series [24] concerns the molecule itself. As to the kind of experiment: stopped-flow tryptophan fluorescence + other: stopped-flow AttoOxa11 fluorescence chasing experiment; dimer to monomers; Kd calculated as k diss/k ass from the two kinetic experiments; pH 6.0, 298 K.
Series [25] concerns the molecule itself. The experiment in a line: SEC-MALS; dimer conditions: 20 mM MES pH 6.0, ionic strength 60 mM (KCl); 100 uL at 5 mg/mL on Superdex-75 HR10/300, 0.5 ml/min.
Series [26] concerns the molecule itself. As to the kind of experiment: stopped-flow tryptophan fluorescence (association kinetics); monomer to dimer; monomeric NTD in 10 mM MES pH 7.0, I 150 mM (KCl), mixed 1:11 into 20 mM MES pH 6.0; three concentrations between 0.1 and 1 uM; 298 K; fit to a kinetic model of dimerization.

On to “AttoOxa11-modified Q50C mutant of the MaSp1 NTD from Euprosthenops australis (domain or fragment)”, for which the koff in [1] turned out to be 1.68 s⁻¹. Consider “MaSp1 N-terminal domain (NTD), E. australis”, for which the k ass (10^9 M^-1 s^-1) in series [2] was 1.58. The K d in series [3] was 1.07 10^-9 M. On to “MaSp1 N-terminal domain (NTD), L. geometricus”, for which the k ass (10^9 M^-1 s^-1) in series [4] worked out at 1.39. In [5], the K d is 0.46 10^-9 M.

“MaSp1 N-terminal domain (NTD), L. hesperus” gave a k ass (10^9 M^-1 s^-1) in series [6] of 2.19. Moreover, the K d in series [7] is 0.14 10^-9 M. “MaSp1 N-terminal domain (NTD), N. clavipes”: the k ass (10^9 M^-1 s^-1) in [8] came to 2.58. Further, in series [9], the K d is 0.73 10^-9 M. Turning to “MaSp1 NTD Q50C-AttoOxa11, E. australis Q50C”, in series [10], the k diss stood at 1.68 s⁻¹. As to “MaSp1 NTD Q50C-AttoOxa11, L. geometricus Q50C”, the k diss in [11] was 0.64 s⁻¹. With “MaSp1 NTD Q50C-AttoOxa11, L. hesperus Q50C”, in series [12], the k diss came to 0.31 s⁻¹. As to “MaSp1 NTD Q50C-AttoOxa11, N. clavipes Q50C”, the k diss in series [13] turned out to be 1.88 s⁻¹. “N-terminal domain (NTD) of major ampullate spidroin 1 (MaSp1) from Latrodectus hesperus (domain or fragment)”: the kon in series [14] worked out at 2.19e+09 M⁻¹ s⁻¹. Besides, the K d in series [15] was 0.14 nM. In series [16], this molecule showed a stoichiometry N of 2. In turn, “N-terminal domain (NTD) of major ampullate spidroin 1 (MaSp1) from Nephila clavipes (domain or fragment)” returned a kon in series [17] of 2.58e+09 M⁻¹ s⁻¹. The K d in series [18] is 0.73 nM. The molecule also had a stoichiometry N in [19] of 2.

B1: AttoOxa11-modified Q50C mutant of the MaSp1 NTD from Nephila clavipes (domain or fragment)
chain: PWSSTELADAFINAFMNEAGRTGAFTADQLDDMSTIGDTIKCAMDKMARSNKSSKGKLQALNMAFASSMAEIAAVEQGGLSVDAKTNAIADSLNSAFYQTTGAANPQFVNEIRSLINMFAQSSAN
modifications: AttoOxa11 (maleimide derivative) on the cysteine at sequence position 50
Consider B1, for which the koff in series [20] was found to be 1.88 ± 0.05 s⁻¹.

B2: N-terminal domain (NTD) of major ampullate spidroin 1 (MaSp1) from Euprosthenops australis, Q05H60 24-156 (domain or fragment)
chain: T1 chain
In the case of B2, the K d in [21] is 1.07 nM. This molecule also displayed a kon in [22] of 1.58e+09 M⁻¹ s⁻¹. Besides, the stoichiometry N in series [23] amounted to 2.

B3: AttoOxa11-modified Q50C mutant of the MaSp1 NTD from Latrodectus hesperus (domain or fragment)
chain: PWSSKANADAFINSFISAASNTGSFSQDQMEDMSLIGNTLMCAMDNMGGRITPSKLQALDMAFASSVAEIAASEGGDLGVTTNAIADALTSAFYQTTGVVNSRFISEIRSLIGMFAQASAN
modifications: AttoOxa11 (maleimide derivative) on the cysteine at sequence position 50
Turning to B3, the koff in [20] was determined as 0.31 ± 0.02 s⁻¹.

B4: N-terminal domain (NTD) of major ampullate spidroin 1 (MaSp1) from Latrodectus geometricus (domain or fragment)
chain: B3 chain with A18S, S20Q, E31D, C42T, S102N, G113S
B4: the Kd in series [24] is 0.46 nM. In addition, in series [25], the “stoichiometry N” value came out at 2. For the same molecule, the kon in [26] stood at 1.39e+09 M⁻¹ s⁻¹.

B5: AttoOxa11-modified Q50C mutant of the MaSp1 NTD from Latrodectus geometricus (domain or fragment)
chain: B3 chain with A18S, S20Q, E31D, S102N, G113S
modifications: AttoOxa11 (maleimide derivative) on the cysteine at sequence position 50
B5 gave a dissociation rate constant (koff) in [20] of 0.64 ± 0.02 s⁻¹.
